Tested on: T1, Twist1
T1 sequence: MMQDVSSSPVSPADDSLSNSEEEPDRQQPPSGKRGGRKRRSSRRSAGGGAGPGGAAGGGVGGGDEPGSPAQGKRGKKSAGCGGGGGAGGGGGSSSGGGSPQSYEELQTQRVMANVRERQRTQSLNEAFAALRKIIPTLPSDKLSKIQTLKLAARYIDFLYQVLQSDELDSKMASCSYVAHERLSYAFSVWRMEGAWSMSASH

Akt (protein kinase B), Akt1 and Akt2 of mouse embryonic fibroblasts
Phosphorylation of Twist1 on S42 in Akt1/2-depleted versus wild-type MEFs: Phosphorylation of Twist1 was not detected in Akt1/2-depleted MEFs under basal conditions or after insulin stimulation, but was high in stimulated wild-type MEFs
